Biological target: T1, TNFR1 (Homo sapiens, UniProt P19438)
T1 chain: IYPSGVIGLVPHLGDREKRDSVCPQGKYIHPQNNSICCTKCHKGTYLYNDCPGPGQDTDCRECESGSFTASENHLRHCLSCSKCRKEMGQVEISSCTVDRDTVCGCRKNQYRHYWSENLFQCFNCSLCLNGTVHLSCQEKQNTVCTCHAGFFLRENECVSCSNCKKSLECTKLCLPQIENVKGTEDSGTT
Assay: yeast display SC50

| Binder | apparent Kd (screen) |
| --- | --- |
| E42V (designed binder) SMEEEVEKAAKEYEKKKKEAIEKHLEKLKAKDKEAAERFLKVLEEAAKEYAKDEAKTMSEEEAKRRAKKYKEKVLLSELSEEEQKEIKEAEEKLVRTILKYVEEAAK | 1.16 nM |
| M58W (designed binder) SMEEEVEKAAKEYEKKKKEAIEKHLEKLKAKDKEAAERFLKELEEAAKEYAKDEAKTWSEEEAKRRAKKYKEKVLLSELSEEEQKEIKEAEEKLVRTILKYVEEAAK | 18.3 nM |
| M58I (designed binder) SMEEEVEKAAKEYEKKKKEAIEKHLEKLKAKDKEAAERFLKELEEAAKEYAKDEAKTISEEEAKRRAKKYKEKVLLSELSEEEQKEIKEAEEKLVRTILKYVEEAAK | 6.43 nM |
| K52R (designed binder) SMEEEVEKAAKEYEKKKKEAIEKHLEKLKAKDKEAAERFLKELEEAAKEYARDEAKTMSEEEAKRRAKKYKEKVLLSELSEEEQKEIKEAEEKLVRTILKYVEEAAK | 0.49 nM |
| E14N (designed binder) SMEEEVEKAAKEYNKKKKEAIEKHLEKLKAKDKEAAERFLKELEEAAKEYAKDEAKTMSEEEAKRRAKKYKEKVLLSELSEEEQKEIKEAEEKLVRTILKYVEEAAK | 5.31 nM |
| E54D (designed binder) SMEEEVEKAAKEYEKKKKEAIEKHLEKLKAKDKEAAERFLKELEEAAKEYAKDDAKTMSEEEAKRRAKKYKEKVLLSELSEEEQKEIKEAEEKLVRTILKYVEEAAK | 20.2 nM |
| K8H (designed binder) SMEEEVEHAAKEYEKKKKEAIEKHLEKLKAKDKEAAERFLKELEEAAKEYAKDEAKTMSEEEAKRRAKKYKEKVLLSELSEEEQKEIKEAEEKLVRTILKYVEEAAK | 0.956 nM |
| L40S (designed binder) SMEEEVEKAAKEYEKKKKEAIEKHLEKLKAKDKEAAERFSKELEEAAKEYAKDEAKTMSEEEAKRRAKKYKEKVLLSELSEEEQKEIKEAEEKLVRTILKYVEEAAK | 0.446 nM |
| I98R (designed binder) SMEEEVEKAAKEYEKKKKEAIEKHLEKLKAKDKEAAERFLKELEEAAKEYAKDEAKTMSEEEAKRRAKKYKEKVLLSELSEEEQKEIKEAEEKLVRTRLKYVEEAAK | 1.4 nM |
| K88C (designed binder) SMEEEVEKAAKEYEKKKKEAIEKHLEKLKAKDKEAAERFLKELEEAAKEYAKDEAKTMSEEEAKRRAKKYKEKVLLSELSEEEQKEICEAEEKLVRTILKYVEEAAK | 0.446 nM |
| A90W (designed binder) SMEEEVEKAAKEYEKKKKEAIEKHLEKLKAKDKEAAERFLKELEEAAKEYAKDEAKTMSEEEAKRRAKKYKEKVLLSELSEEEQKEIKEWEEKLVRTILKYVEEAAK | 0.49 nM |
| K8T (designed binder) SMEEEVETAAKEYEKKKKEAIEKHLEKLKAKDKEAAERFLKELEEAAKEYAKDEAKTMSEEEAKRRAKKYKEKVLLSELSEEEQKEIKEAEEKLVRTILKYVEEAAK | 1.16 nM |
| K11V (designed binder) SMEEEVEKAAVEYEKKKKEAIEKHLEKLKAKDKEAAERFLKELEEAAKEYAKDEAKTMSEEEAKRRAKKYKEKVLLSELSEEEQKEIKEAEEKLVRTILKYVEEAAK | 0.593 nM |
| T97L (designed binder) SMEEEVEKAAKEYEKKKKEAIEKHLEKLKAKDKEAAERFLKELEEAAKEYAKDEAKTMSEEEAKRRAKKYKEKVLLSELSEEEQKEIKEAEEKLVRLILKYVEEAAK | 1.69 nM |
| I98E (designed binder) SMEEEVEKAAKEYEKKKKEAIEKHLEKLKAKDKEAAERFLKELEEAAKEYAKDEAKTMSEEEAKRRAKKYKEKVLLSELSEEEQKEIKEAEEKLVRTELKYVEEAAK | 4.39 nM |
| K31E (designed binder) SMEEEVEKAAKEYEKKKKEAIEKHLEKLKAEDKEAAERFLKELEEAAKEYAKDEAKTMSEEEAKRRAKKYKEKVLLSELSEEEQKEIKEAEEKLVRTILKYVEEAAK | 1.05 nM |
| A9E (designed binder) SMEEEVEKEAKEYEKKKKEAIEKHLEKLKAKDKEAAERFLKELEEAAKEYAKDEAKTMSEEEAKRRAKKYKEKVLLSELSEEEQKEIKEAEEKLVRTILKYVEEAAK | 0.446 nM |
| T97D (designed binder) SMEEEVEKAAKEYEKKKKEAIEKHLEKLKAKDKEAAERFLKELEEAAKEYAKDEAKTMSEEEAKRRAKKYKEKVLLSELSEEEQKEIKEAEEKLVRDILKYVEEAAK | 0.446 nM |

| Binder | apparent Kd (screen) |
| --- | --- |
| E83K (designed binder) SMEEEVEKAAKEYEKKKKEAIEKHLEKLKAKDKEAAERFLKELEEAAKEYAKDEAKTMSEEEAKRRAKKYKEKVLLSELSEEKQKEIKEAEEKLVRTILKYVEEAAK | 0.593 nM |
| K88L (designed binder) SMEEEVEKAAKEYEKKKKEAIEKHLEKLKAKDKEAAERFLKELEEAAKEYAKDEAKTMSEEEAKRRAKKYKEKVLLSELSEEEQKEILEAEEKLVRTILKYVEEAAK | 0.49 nM |
| K29L (designed binder) SMEEEVEKAAKEYEKKKKEAIEKHLEKLLAKDKEAAERFLKELEEAAKEYAKDEAKTMSEEEAKRRAKKYKEKVLLSELSEEEQKEIKEAEEKLVRTILKYVEEAAK | 0.79 nM |
| S80N (designed binder) SMEEEVEKAAKEYEKKKKEAIEKHLEKLKAKDKEAAERFLKELEEAAKEYAKDEAKTMSEEEAKRRAKKYKEKVLLSELNEEEQKEIKEAEEKLVRTILKYVEEAAK | 2.73 nM |
| E49K (designed binder) SMEEEVEKAAKEYEKKKKEAIEKHLEKLKAKDKEAAERFLKELEEAAKKYAKDEAKTMSEEEAKRRAKKYKEKVLLSELSEEEQKEIKEAEEKLVRTILKYVEEAAK | 10.4 nM |
| Q84A (designed binder) SMEEEVEKAAKEYEKKKKEAIEKHLEKLKAKDKEAAERFLKELEEAAKEYAKDEAKTMSEEEAKRRAKKYKEKVLLSELSEEEAKEIKEAEEKLVRTILKYVEEAAK | 11.4 nM |
| K88I (designed binder) SMEEEVEKAAKEYEKKKKEAIEKHLEKLKAKDKEAAERFLKELEEAAKEYAKDEAKTMSEEEAKRRAKKYKEKVLLSELSEEEQKEIIEAEEKLVRTILKYVEEAAK | 0.446 nM |
| K27F (designed binder) SMEEEVEKAAKEYEKKKKEAIEKHLEFLKAKDKEAAERFLKELEEAAKEYAKDEAKTMSEEEAKRRAKKYKEKVLLSELSEEEQKEIKEAEEKLVRTILKYVEEAAK | 0.49 nM |
| E26R (designed binder) SMEEEVEKAAKEYEKKKKEAIEKHLRKLKAKDKEAAERFLKELEEAAKEYAKDEAKTMSEEEAKRRAKKYKEKVLLSELSEEEQKEIKEAEEKLVRTILKYVEEAAK | 0.593 nM |
| E104Y (designed binder) SMEEEVEKAAKEYEKKKKEAIEKHLEKLKAKDKEAAERFLKELEEAAKEYAKDEAKTMSEEEAKRRAKKYKEKVLLSELSEEEQKEIKEAEEKLVRTILKYVEYAAK | 0.653 nM |
| K27Q (designed binder) SMEEEVEKAAKEYEKKKKEAIEKHLEQLKAKDKEAAERFLKELEEAAKEYAKDEAKTMSEEEAKRRAKKYKEKVLLSELSEEEQKEIKEAEEKLVRTILKYVEEAAK | 0.593 nM |
| K41H (designed binder) SMEEEVEKAAKEYEKKKKEAIEKHLEKLKAKDKEAAERFLHELEEAAKEYAKDEAKTMSEEEAKRRAKKYKEKVLLSELSEEEQKEIKEAEEKLVRTILKYVEEAAK | 0.593 nM |
| A36M (designed binder) SMEEEVEKAAKEYEKKKKEAIEKHLEKLKAKDKEAMERFLKELEEAAKEYAKDEAKTMSEEEAKRRAKKYKEKVLLSELSEEEQKEIKEAEEKLVRTILKYVEEAAK | 0.446 nM |
| A90K (designed binder) SMEEEVEKAAKEYEKKKKEAIEKHLEKLKAKDKEAAERFLKELEEAAKEYAKDEAKTMSEEEAKRRAKKYKEKVLLSELSEEEQKEIKEKEEKLVRTILKYVEEAAK | 0.956 nM |
| K16H (designed binder) SMEEEVEKAAKEYEKHKKEAIEKHLEKLKAKDKEAAERFLKELEEAAKEYAKDEAKTMSEEEAKRRAKKYKEKVLLSELSEEEQKEIKEAEEKLVRTILKYVEEAAK | 0.446 nM |
| E45T (designed binder) SMEEEVEKAAKEYEKKKKEAIEKHLEKLKAKDKEAAERFLKELETAAKEYAKDEAKTMSEEEAKRRAKKYKEKVLLSELSEEEQKEIKEAEEKLVRTILKYVEEAAK | 2.73 nM |
| K17L (designed binder) SMEEEVEKAAKEYEKKLKEAIEKHLEKLKAKDKEAAERFLKELEEAAKEYAKDEAKTMSEEEAKRRAKKYKEKVLLSELSEEEQKEIKEAEEKLVRTILKYVEEAAK | 1.69 nM |

From publication PMC12416549 (2024)
